Laboratory results from paper doi:10.1101/203372.

Biological target: HDAC6-EGFP WT (full-length human histone deacetylase 6 fused to EGFP) (human) (UniProt Q9UBN7)
Assay: MST

Sequence of HDAC6-EGFP WT (full-length human histone deacetylase 6 fused to EGFP) (human) (Q9UBN7 whole entry, the tested form may be a part): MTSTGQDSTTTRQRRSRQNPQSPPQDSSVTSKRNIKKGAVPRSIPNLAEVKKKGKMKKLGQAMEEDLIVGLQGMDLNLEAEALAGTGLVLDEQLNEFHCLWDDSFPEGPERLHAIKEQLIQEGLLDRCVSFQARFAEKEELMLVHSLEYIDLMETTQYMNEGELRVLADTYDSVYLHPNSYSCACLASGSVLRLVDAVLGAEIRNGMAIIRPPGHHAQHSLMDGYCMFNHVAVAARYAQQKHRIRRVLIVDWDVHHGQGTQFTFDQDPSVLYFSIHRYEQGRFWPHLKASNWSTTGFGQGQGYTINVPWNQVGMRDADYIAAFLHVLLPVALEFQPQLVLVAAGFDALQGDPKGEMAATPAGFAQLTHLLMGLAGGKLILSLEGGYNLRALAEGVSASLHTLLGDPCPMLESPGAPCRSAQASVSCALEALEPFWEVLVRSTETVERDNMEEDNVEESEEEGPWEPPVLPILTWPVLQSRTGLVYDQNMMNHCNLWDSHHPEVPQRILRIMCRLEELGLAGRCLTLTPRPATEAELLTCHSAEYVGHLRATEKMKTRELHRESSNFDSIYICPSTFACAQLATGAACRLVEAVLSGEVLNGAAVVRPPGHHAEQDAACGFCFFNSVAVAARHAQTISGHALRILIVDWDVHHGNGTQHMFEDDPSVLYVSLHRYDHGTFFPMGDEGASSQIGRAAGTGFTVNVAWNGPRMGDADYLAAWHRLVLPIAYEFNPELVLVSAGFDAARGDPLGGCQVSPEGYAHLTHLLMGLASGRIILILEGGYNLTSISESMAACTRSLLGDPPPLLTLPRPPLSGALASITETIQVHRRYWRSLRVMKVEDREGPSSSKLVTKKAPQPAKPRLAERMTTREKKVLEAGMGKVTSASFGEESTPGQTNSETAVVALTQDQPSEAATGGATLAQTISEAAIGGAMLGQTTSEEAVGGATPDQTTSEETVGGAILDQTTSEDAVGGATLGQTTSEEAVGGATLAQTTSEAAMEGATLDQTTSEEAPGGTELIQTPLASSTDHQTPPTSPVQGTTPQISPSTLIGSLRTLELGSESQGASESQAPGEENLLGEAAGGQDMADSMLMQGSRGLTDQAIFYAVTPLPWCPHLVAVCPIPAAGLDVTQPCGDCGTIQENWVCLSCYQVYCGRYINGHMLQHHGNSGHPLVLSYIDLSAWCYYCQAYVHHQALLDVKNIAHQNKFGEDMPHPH
Sequence of NEDD8, human, recombinant, His-tag (Q15843 1-76): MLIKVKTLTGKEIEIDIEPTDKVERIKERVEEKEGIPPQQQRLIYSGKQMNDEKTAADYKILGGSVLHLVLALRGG

Row | fold higher affinity than mono-Ub | fold lower affinity than mono-Ub | Substance
1 | 4 fold |  | K63-linked tetra-Ub (from UniProt P0CG48)
2 |  | 50 fold | NEDD8, human, recombinant, His-tag (from UniProt Q15843 1-76) (natural protein)
